In US20140186363A1 (UNIVERSITY OF ZURICH, published 2014):

Legend:
[1] = molecular target: T1, MAGEA3 peptide no 6; experiment: ELISA on plate-coated 20mer peptide, antibody at 1 µg/ml, anti-human IgG Fc-HRP [Figure 1]
T1 construct: also called MAGEA3 aa 51-70
T1 peptide: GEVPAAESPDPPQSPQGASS
Protocol: (§1) 20mer peptides spanning the entire MAGEA3 protein with 10 aa overlaps shared by each adjacent peptide (Peptides&Elephants, Nuthetal, Germany) were used to coat Maxisorp ELISA plates (Nunc, Rochester, N.Y.). As control a 20mer peptide representing amino acids 40-21 from the NY-ESO-1 protein was used (rev). The numbering of amino acids of MAGEA3 is based on SEQ ID No:41.
(§2) Human recombinant antibody was used at a concentration of 1 μg/ml. Bound human antibody was detected using horseradish peroxidase-conjugated goat anti-human IgG Fc-gamma specific antibodies (Jackson ImmunoResearch, Europe Ltd., Cambridgeshire, UK).

[2] = molecular target: T2, MAGEA3 peptide no 22; experiment: peptide ELISA (coated 20mer) [Figure 1]
T2 construct: also called MAGEA3 aa 211-230
T2 peptide: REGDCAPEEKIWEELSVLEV
Protocol: as §1, §2

[3] = molecular target: T3, MAGEA3 peptide no 25; experiment: peptide ELISA (coated 20mer) [Figure 1]
T3 construct: also called MAGEA3 aa 241-260
T3 peptide: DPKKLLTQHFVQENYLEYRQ
Protocol: as §1, §2

[4] = molecular target: T4, MAGEA3 peptide no 14; experiment: peptide ELISA (coated 20mer) [Figure 1]
T4 construct: also called MAGEA3 aa 131-150
T4 peptide: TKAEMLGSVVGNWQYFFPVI
Protocol: as §1, §2

[5] = molecular target: T5, MAGEA3 peptide no 5; experiment: peptide ELISA (coated 20mer) [Figure 1]
T5 construct: also called MAGEA3 aa 41-60
T5 peptide: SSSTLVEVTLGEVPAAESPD
Protocol: as §1, §2

[6] = molecular target: T6, MAGEA3 peptide no 7; experiment: peptide ELISA (coated 20mer) [Figure 1]
T6 construct: also called MAGEA3 aa 61-80
T6 peptide: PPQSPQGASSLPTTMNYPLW
Protocol: as §1, §2

[7] = molecular target: T7, MAGEA3 peptide no 24; experiment: peptide ELISA (coated 20mer) [Figure 1]
T7 construct: also called MAGEA3 aa 231-250
T7 peptide: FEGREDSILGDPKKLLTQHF
Protocol: as §1, §2

[8] = molecular target: T8, MAGEA3 peptide no 10; experiment: peptide ELISA (coated 20mer) [Figure 1]
T8 construct: also called MAGEA3 aa 91-110
T8 peptide: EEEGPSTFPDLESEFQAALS
Protocol: as §1, §2

[9] = molecular target: T9, MAGEA3 peptide no 13; experiment: peptide ELISA (coated 20mer) [Figure 1]
T9 construct: also called MAGEA3 aa 121-140
T9 peptide: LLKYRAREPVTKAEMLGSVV
Protocol: as §1, §2

[10] = molecular target: T10, MAGEA3 peptide no 16; experiment: peptide ELISA (coated 20mer) [Figure 1]
T10 construct: also called MAGEA3 aa 151-170
T10 peptide: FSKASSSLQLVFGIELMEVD
Protocol: as §1, §2

[11] = molecular target: T11, MAGEA3 peptide no 8; experiment: peptide ELISA (coated 20mer)
T11 construct: also called MAGEA3 aa 71-90
T11 peptide: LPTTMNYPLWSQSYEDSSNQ
Protocol: as §1, §2

[12] = molecular target: T12, MAGEA3 peptide no 17; experiment: peptide ELISA (coated 20mer)
T12 construct: also called MAGEA3 aa 161-180
T12 peptide: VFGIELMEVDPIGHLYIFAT
Protocol: as §1, §2

[13] = molecular target: T3, MAGEA3 peptide no 25; experiment: peptide ELISA (coated 20mer)
Protocol: as §1, §2

[14] = molecular target: T13, MAGEA3 peptide no 12; experiment: peptide ELISA (coated 20mer)
T13 construct: also called MAGEA3 aa 111-130
T13 peptide: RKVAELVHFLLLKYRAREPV
Protocol: as §1, §2

[15] = molecular target: T14, MAGEA3 peptide no 28; experiment: peptide ELISA (coated 20mer)
T14 construct: also called MAGEA3 aa 271-290
T14 peptide: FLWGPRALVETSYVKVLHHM
Protocol: as §1, §2

[16] = molecular target: T7, MAGEA3 peptide no 24; experiment: peptide ELISA (coated 20mer)
Protocol: as §1, §2

[17] = molecular target: T15, MAGEA3 peptide no 3; experiment: peptide ELISA (coated 20mer)
T15 construct: also called MAGEA3 aa 21-40
T15 peptide: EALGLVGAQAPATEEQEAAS
Protocol: as §1, §2

[18] = molecular target: T16, MAGEA3 peptide no 18; experiment: peptide ELISA (coated 20mer)
T16 construct: also called MAGEA3 aa 171-190
T16 peptide: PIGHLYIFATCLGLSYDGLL
Protocol: as §1, §2

[19] = molecular target: T17, MAGEA3 peptide no 2; experiment: peptide ELISA (coated 20mer)
T17 construct: also called MAGEA3 aa 11-30
T17 peptide: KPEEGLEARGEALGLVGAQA
Protocol: as §1, §2

[20] = molecular target: T18, MAGEA3 peptide no 20; experiment: peptide ELISA (coated 20mer)
T18 construct: also called MAGEA3 aa 191-210
T18 peptide: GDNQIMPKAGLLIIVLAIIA
Protocol: as §1, §2

[21] = molecular target: T19, MAGEA3 peptide no 1; experiment: peptide ELISA (coated 20mer)
T19 construct: also called MAGEA3 aa 1-20
T19 peptide: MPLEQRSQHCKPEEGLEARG
Protocol: as §1, §2

[22] = molecular target: T1, MAGEA3 peptide no 6; experiment: peptide ELISA (coated 20mer)
Protocol: as §1, §2

[23] = molecular target: T20, MAGEA3 peptide no 23; experiment: peptide ELISA (coated 20mer)
T20 construct: also called MAGEA3 aa 221-240
T20 peptide: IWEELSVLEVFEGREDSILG
Protocol: as §1, §2

[24] = molecular target: T10, MAGEA3 peptide no 16; experiment: peptide ELISA (coated 20mer)
Protocol: as §1, §2

[25] = molecular target: T21, MAGEA3 peptide no 21; experiment: peptide ELISA (coated 20mer)
T21 construct: also called MAGEA3 aa 201-220
T21 peptide: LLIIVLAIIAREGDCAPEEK
Protocol: as §1, §2

[26] = molecular target: T22, MAGEA3 (human, UniProt P43357 1-314); experiment: ELISA, plate coated with recombinant MAGEA3, serial dilution of antibody
T22 construct: also called recombinant MAGEA3; MAGEA3-protein

[27] = molecular target: T5, MAGEA3 peptide no 5; experiment: ELISA on plate-coated 20mer peptide, antibody at 1 µg/ml, anti-human IgG Fc-HRP [Figure 1]
Protocol: as §1, §2

[28] = molecular target: T1, MAGEA3 peptide no 6; experiment: peptide ELISA (coated 20mer) [Figure 1]
Protocol: as §1, §2

B1: 34G9 (antibody, V domains shown)
VH: EVQLEESGGDLVQPGGSLRLSCAASGFTFSHYWMHWVRQAPGKGLVWVSRINSDGSSTSYADSVKGRFTISRDNAKNTLYLQMNSLRAEDTAVYYCARIGSDGYNYDFWGQGTLVTVSS
VL: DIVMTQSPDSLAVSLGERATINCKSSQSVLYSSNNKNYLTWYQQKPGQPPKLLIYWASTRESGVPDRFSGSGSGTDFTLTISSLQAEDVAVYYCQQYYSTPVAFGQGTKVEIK
notes: Patient-derived human antibody made recombinantly; also called human monoclonal antibody 34G9
binding result [1]: binds | binding result [2]: no binding (tested: 1 µg/ml) | binding result [3]: no binding (tested: 1 µg/ml) | binding result [4]: no binding (tested: 1 µg/ml) | binding result [5]: no binding (tested: 1 µg/ml) | binding result [6]: no binding (tested: 1 µg/ml) | binding result [7]: no binding (tested: 1 µg/ml) | binding result [8]: no binding (tested: 1 µg/ml) | binding result [9]: no binding (tested: 1 µg/ml) | binding result [10]: no binding (tested: 1 µg/ml)

B2: 32H2 (antibody, V domains shown)
VH: QVQLVESGGGVVQPGRSLRLSCAASGFTFSSNAMHWVRQAPGKGLEWVAVISHDGSNKYYADSVKGRFTISRDNSKNTLYLQMNSLRAEDTAVYYCARDGSGSYFNLDYWGQGTLVTVSS
VL: QSALTQPASVSGSPGQSITISCTGTSSDVGGYNYVSWYQQHPGKAPKLMIYEVSNRPSGVSNRFSGSKSGNTASLTISGLQAEDEADYYCSSYTSSSTLVFGTGTKVTVL
notes: Patient-derived human antibody made recombinantly; also called human monoclonal antibody 32H2
binding result [11]: no binding (tested: 1 µg/ml) | binding result [12]: no binding (tested: 1 µg/ml) | binding result [13]: no binding (tested: 1 µg/ml) | binding result [14]: no binding (tested: 1 µg/ml) | binding result [15]: no binding (tested: 1 µg/ml) | binding result [16]: no binding (tested: 1 µg/ml) | binding result [17]: no binding (tested: 1 µg/ml) | binding result [18]: no binding (tested: 1 µg/ml) | binding result [19]: no binding (tested: 1 µg/ml) | binding result [20]: no binding (tested: 1 µg/ml) | binding result [21]: no binding (tested: 1 µg/ml) | binding result [22]: no binding (tested: 1 µg/ml) | binding result [23]: no binding (tested: 1 µg/ml) | binding result [24]: no binding (tested: 1 µg/ml) | binding result [25]: no binding (tested: 1 µg/ml) | EC50 [26]: 33 pM | EC50 (read off the curve) [26]: ~30 pM

B3: 102G10 (antibody, V domains shown)
VH: EVQLVESGGGLVKPGGSLRLSCAASGFTFSGNSMNWVRQAPGKGLEWVSSISSSSGYIYYADSVKGRFTVSRDNAKNSLYLQMNSLRAEDTAVYYCATWPVTTARVGYWGQGTLVTVSS
VL: QSVLTQPPSASGTPGQRVTISCSGSSSNIGSNYVYWHQQLPGTAPKLLIYRHDQRPSGVPDRFSGSKSGTSASLAISGLRSEDEADYYCAAWDDSLSAWVFGGGTKLTVL
notes: Patient-derived human antibody made recombinantly; also called human monoclonal antibody 102G10
binding result [27]: binds | binding result [2]: no binding (tested: 1 µg/ml) | binding result [3]: no binding (tested: 1 µg/ml) | binding result [4]: no binding (tested: 1 µg/ml) | binding result [6]: no binding (tested: 1 µg/ml) | binding result [7]: no binding (tested: 1 µg/ml) | binding result [8]: no binding (tested: 1 µg/ml) | binding result [28]: no binding (tested: 1 µg/ml) | binding result [9]: no binding (tested: 1 µg/ml) | binding result [10]: no binding (tested: 1 µg/ml)
